Assay results published in patent EP4792821A2 (Beijing Youcare Kechuang Pharmaceutical Technology Co., Ltd., dated 2026).
The star is where a group is joined. Succinyl(4-O-cholesteryl) = CC(C)CCC[C@@H](C)[C@H]1CC[C@H]2[C@@H]3CC=C4C[C@@H](OC(=O)CCC(=O)*)CC[C@]4(C)[C@H]3CC[C@]12C

B1: Compound 33 (peptide)
peptide: Ac-SLEQVNKKINQSLKVNKKSDKLLENEAAAKK(Succinyl(4-O-cholesteryl))-NH2
SMILES: CC[C@H](C)[C@H](NC(=O)[C@H](CCCCN)NC(=O)[C@H](CCCCN)NC(=O)[C@H](CC(N)=O)NC(=O)[C@@H](NC(=O)[C@H](CCC(N)=O)NC(=O)[C@H](CCC(=O)O)NC(=O)[C@H](CC(C)C)NC(=O)[C@H](CO)NC(C)=O)C(C)C)C(=O)N[C@@H](CC(N)=O)C(=O)N[C@@H](CCC(N)=O)C(=O)N[C@@H](CO)C(=O)N[C@@H](CC(C)C)C(=O)N[C@@H](CCCCN)C(=O)N[C@H](C(=O)N[C@@H](CC(N)=O)C(=O)N[C@@H](CCCCN)C(=O)N[C@@H](CCCCN)C(=O)N[C@@H](CO)C(=O)N[C@@H](CC(=O)O)C(=O)N[C@@H](CCCCN)C(=O)N[C@@H](CC(C)C)C(=O)N[C@@H](CC(C)C)C(=O)N[C@@H](CCC(=O)O)C(=O)N[C@@H](CC(N)=O)C(=O)N[C@@H](CCC(=O)O)C(=O)N[C@@H](C)C(=O)N[C@@H](C)C(=O)N[C@@H](C)C(=O)N[C@@H](CCCCN)C(=O)N[C@@H](CCCCNC(=O)CCC(=O)O[C@H]1CC[C@@]2(C)C(=CC[C@H]3[C@@H]4CC[C@H]([C@H](C)CCCC(C)C)[C@@]4(C)CC[C@@H]32)C1)C(N)=O)C(C)C
B2: Compound 19 (peptide)
peptide: Ac-FDASIEEVNRRIEESLRRIEESDRRLEAAAKK(Succinyl(4-O-cholesteryl))-NH2
SMILES: CC[C@H](C)[C@H](NC(=O)[C@H](CO)NC(=O)[C@H](C)NC(=O)[C@H](CC(=O)O)NC(=O)[C@H](Cc1ccccc1)NC(C)=O)C(=O)N[C@@H](CCC(=O)O)C(=O)N[C@@H](CCC(=O)O)C(=O)N[C@H](C(=O)N[C@@H](CC(N)=O)C(=O)N[C@@H](CCCNC(=N)N)C(=O)N[C@@H](CCCNC(=N)N)C(=O)N[C@H](C(=O)N[C@@H](CCC(=O)O)C(=O)N[C@@H](CCC(=O)O)C(=O)N[C@@H](CO)C(=O)N[C@@H](CC(C)C)C(=O)N[C@@H](CCCNC(=N)N)C(=O)N[C@@H](CCCNC(=N)N)C(=O)N[C@H](C(=O)N[C@@H](CCC(=O)O)C(=O)N[C@@H](CCC(=O)O)C(=O)N[C@@H](CO)C(=O)N[C@@H](CC(=O)O)C(=O)N[C@@H](CCCNC(=N)N)C(=O)N[C@@H](CCCNC(=N)N)C(=O)N[C@@H](CC(C)C)C(=O)N[C@@H](CCC(=O)O)C(=O)N[C@@H](C)C(=O)N[C@@H](C)C(=O)N[C@@H](C)C(=O)N[C@@H](CCCCN)C(=O)N[C@@H](CCCCNC(=O)CCC(=O)O[C@H]1CC[C@@]2(C)C(=CC[C@H]3[C@@H]4CC[C@H]([C@H](C)CCCC(C)C)[C@@]4(C)CC[C@@H]32)C1)C(N)=O)[C@@H](C)CC)[C@@H](C)CC)C(C)C
B3: Compound 34 (peptide)
peptide: Ac-FDEEVNKKIEQSLKINQSLEEIRKSEAAAKK(Succinyl(4-O-cholesteryl))-NH2
SMILES: CC[C@H](C)[C@H](NC(=O)[C@H](CCC(=O)O)NC(=O)[C@H](CCC(=O)O)NC(=O)[C@H](CC(C)C)NC(=O)[C@H](CO)NC(=O)[C@H](CCC(N)=O)NC(=O)[C@H](CC(N)=O)NC(=O)[C@@H](NC(=O)[C@H](CCCCN)NC(=O)[C@H](CC(C)C)NC(=O)[C@H](CO)NC(=O)[C@H](CCC(N)=O)NC(=O)[C@H](CCC(=O)O)NC(=O)[C@@H](NC(=O)[C@H](CCCCN)NC(=O)[C@H](CCCCN)NC(=O)[C@H](CC(N)=O)NC(=O)[C@@H](NC(=O)[C@H](CCC(=O)O)NC(=O)[C@H](CCC(=O)O)NC(=O)[C@H](CC(=O)O)NC(=O)[C@H](Cc1ccccc1)NC(C)=O)C(C)C)[C@@H](C)CC)[C@@H](C)CC)C(=O)N[C@@H](CCCNC(=N)N)C(=O)N[C@@H](CCCCN)C(=O)N[C@@H](CO)C(=O)N[C@@H](CCC(=O)O)C(=O)N[C@@H](C)C(=O)N[C@@H](C)C(=O)N[C@@H](C)C(=O)N[C@@H](CCCCN)C(=O)N[C@@H](CCCCNC(=O)CCC(=O)O[C@H]1CC[C@@]2(C)C(=CC[C@H]3[C@@H]4CC[C@H]([C@H](C)CCCC(C)C)[C@@]4(C)CC[C@@H]32)C1)C(N)=O
B4: Compound 36 (peptide)
peptide: Ac-VNKKIEEEKQSLKKQSDKIEESDENEAAAKK(Succinyl(4-O-cholesteryl))-NH2
SMILES: CC[C@H](C)[C@H](NC(=O)[C@H](CCCCN)NC(=O)[C@H](CC(=O)O)NC(=O)[C@H](CO)NC(=O)[C@H](CCC(N)=O)NC(=O)[C@H](CCCCN)NC(=O)[C@H](CCCCN)NC(=O)[C@H](CC(C)C)NC(=O)[C@H](CO)NC(=O)[C@H](CCC(N)=O)NC(=O)[C@H](CCCCN)NC(=O)[C@H](CCC(=O)O)NC(=O)[C@H](CCC(=O)O)NC(=O)[C@H](CCC(=O)O)NC(=O)[C@@H](NC(=O)[C@H](CCCCN)NC(=O)[C@H](CCCCN)NC(=O)[C@H](CC(N)=O)NC(=O)[C@@H](NC(C)=O)C(C)C)[C@@H](C)CC)C(=O)N[C@@H](CCC(=O)O)C(=O)N[C@@H](CCC(=O)O)C(=O)N[C@@H](CO)C(=O)N[C@@H](CC(=O)O)C(=O)N[C@@H](CCC(=O)O)C(=O)N[C@@H](CC(N)=O)C(=O)N[C@@H](CCC(=O)O)C(=O)N[C@@H](C)C(=O)N[C@@H](C)C(=O)N[C@@H](C)C(=O)N[C@@H](CCCCN)C(=O)N[C@@H](CCCCNC(=O)CCC(=O)O[C@H]1CC[C@@]2(C)C(=CC[C@H]3[C@@H]4CC[C@H]([C@H](C)CCCC(C)C)[C@@]4(C)CC[C@@H]32)C1)C(N)=O
B5: Compound 32 (peptide)
peptide: Ac-ILELVNKKIEQSLKFIEKSDKLLENEAAAKK(Succinyl(4-O-cholesteryl))-NH2
SMILES: CC[C@H](C)[C@H](NC(C)=O)C(=O)N[C@@H](CC(C)C)C(=O)N[C@@H](CCC(=O)O)C(=O)N[C@@H](CC(C)C)C(=O)N[C@H](C(=O)N[C@@H](CC(N)=O)C(=O)N[C@@H](CCCCN)C(=O)N[C@@H](CCCCN)C(=O)N[C@H](C(=O)N[C@@H](CCC(=O)O)C(=O)N[C@@H](CCC(N)=O)C(=O)N[C@@H](CO)C(=O)N[C@@H](CC(C)C)C(=O)N[C@@H](CCCCN)C(=O)N[C@@H](Cc1ccccc1)C(=O)N[C@H](C(=O)N[C@@H](CCC(=O)O)C(=O)N[C@@H](CCCCN)C(=O)N[C@@H](CO)C(=O)N[C@@H](CC(=O)O)C(=O)N[C@@H](CCCCN)C(=O)N[C@@H](CC(C)C)C(=O)N[C@@H](CC(C)C)C(=O)N[C@@H](CCC(=O)O)C(=O)N[C@@H](CC(N)=O)C(=O)N[C@@H](CCC(=O)O)C(=O)N[C@@H](C)C(=O)N[C@@H](C)C(=O)N[C@@H](C)C(=O)N[C@@H](CCCCN)C(=O)N[C@@H](CCCCNC(=O)CCC(=O)O[C@H]1CC[C@@]2(C)C(=CC[C@H]3[C@@H]4CC[C@H]([C@H](C)CCCC(C)C)[C@@]4(C)CC[C@@H]32)C1)C(N)=O)[C@@H](C)CC)[C@@H](C)CC)C(C)C
B6: Compound 31 (peptide)
peptide: Ac-SDEQVNEKINQSLAFIRRIRKLLHNEAAAKK(Succinyl(4-O-cholesteryl))-NH2
SMILES: CC[C@H](C)[C@H](NC(=O)[C@H](Cc1ccccc1)NC(=O)[C@H](C)NC(=O)[C@H](CC(C)C)NC(=O)[C@H](CO)NC(=O)[C@H](CCC(N)=O)NC(=O)[C@H](CC(N)=O)NC(=O)[C@@H](NC(=O)[C@H](CCCCN)NC(=O)[C@H](CCC(=O)O)NC(=O)[C@H](CC(N)=O)NC(=O)[C@@H](NC(=O)[C@H](CCC(N)=O)NC(=O)[C@H](CCC(=O)O)NC(=O)[C@H](CC(=O)O)NC(=O)[C@H](CO)NC(C)=O)C(C)C)[C@@H](C)CC)C(=O)N[C@@H](CCCNC(=N)N)C(=O)N[C@@H](CCCNC(=N)N)C(=O)N[C@H](C(=O)N[C@@H](CCCNC(=N)N)C(=O)N[C@@H](CCCCN)C(=O)N[C@@H](CC(C)C)C(=O)N[C@@H](CC(C)C)C(=O)N[C@@H](Cc1c[nH]cn1)C(=O)N[C@@H](CC(N)=O)C(=O)N[C@@H](CCC(=O)O)C(=O)N[C@@H](C)C(=O)N[C@@H](C)C(=O)N[C@@H](C)C(=O)N[C@@H](CCCCN)C(=O)N[C@@H](CCCCNC(=O)CCC(=O)O[C@H]1CC[C@@]2(C)C(=CC[C@H]3[C@@H]4CC[C@H]([C@H](C)CCCC(C)C)[C@@]4(C)CC[C@@H]32)C1)C(N)=O)[C@@H](C)CC
B7: Compound 35 (peptide)
peptide: Ac-SISQVNEKINEIQSLEEKSDKLLKSEAAAKK(Succinyl(4-O-cholesteryl))-NH2
SMILES: CC[C@H](C)[C@H](NC(=O)[C@H](CO)NC(C)=O)C(=O)N[C@@H](CO)C(=O)N[C@@H](CCC(N)=O)C(=O)N[C@H](C(=O)N[C@@H](CC(N)=O)C(=O)N[C@@H](CCC(=O)O)C(=O)N[C@@H](CCCCN)C(=O)N[C@H](C(=O)N[C@@H](CC(N)=O)C(=O)N[C@@H](CCC(=O)O)C(=O)N[C@H](C(=O)N[C@@H](CCC(N)=O)C(=O)N[C@@H](CO)C(=O)N[C@@H](CC(C)C)C(=O)N[C@@H](CCC(=O)O)C(=O)N[C@@H](CCC(=O)O)C(=O)N[C@@H](CCCCN)C(=O)N[C@@H](CO)C(=O)N[C@@H](CC(=O)O)C(=O)N[C@@H](CCCCN)C(=O)N[C@@H](CC(C)C)C(=O)N[C@@H](CC(C)C)C(=O)N[C@@H](CCCCN)C(=O)N[C@@H](CO)C(=O)N[C@@H](CCC(=O)O)C(=O)N[C@@H](C)C(=O)N[C@@H](C)C(=O)N[C@@H](C)C(=O)N[C@@H](CCCCN)C(=O)N[C@@H](CCCCNC(=O)CCC(=O)O[C@H]1CC[C@@]2(C)C(=CC[C@H]3[C@@H]4CC[C@H]([C@H](C)CCCC(C)C)[C@@]4(C)CC[C@@H]32)C1)C(N)=O)[C@@H](C)CC)[C@@H](C)CC)C(C)C

Biological target: F protein of RSV A long virus strain (Respiratory Syncytial Virus (RSV) A …, UniProt P12568 26-574)
Sequence (P12568 26-574): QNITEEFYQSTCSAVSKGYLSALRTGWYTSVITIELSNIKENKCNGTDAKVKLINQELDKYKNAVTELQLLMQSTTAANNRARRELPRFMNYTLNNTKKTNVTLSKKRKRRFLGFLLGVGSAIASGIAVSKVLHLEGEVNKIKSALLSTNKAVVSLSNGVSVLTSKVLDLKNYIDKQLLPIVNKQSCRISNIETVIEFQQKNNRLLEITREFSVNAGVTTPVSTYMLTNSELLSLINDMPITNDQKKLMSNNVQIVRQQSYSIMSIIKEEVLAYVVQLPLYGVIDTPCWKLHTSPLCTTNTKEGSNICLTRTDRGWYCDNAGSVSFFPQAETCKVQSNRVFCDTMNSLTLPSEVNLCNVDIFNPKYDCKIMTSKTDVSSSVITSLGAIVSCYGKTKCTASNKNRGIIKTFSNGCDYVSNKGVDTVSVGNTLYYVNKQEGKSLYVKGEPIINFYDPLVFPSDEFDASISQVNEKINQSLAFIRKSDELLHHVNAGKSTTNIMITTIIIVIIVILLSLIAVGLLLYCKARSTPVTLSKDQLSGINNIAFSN
Test: cell-based or functional assay

Binder | IC50/nM, plaque reduction, RSV A long on HEp-2 cells (Table 2, Cell fusion inhibition activity) [nM]
B1 | 5040
B2 | 16.2
Ac-FDFDEFDASISQVNEKINESLAFIRLAFIRKSDELLEAAAKK-NH2 [Compound 24] | 2650
Ac-DEFDKKKIEEVNKKIEESLKKIEESDKKLEEV-NH2 [Compound 3] | 4430
Ac-YDELVFDASQVNEKINQSLEKIRKSDELLHNV-NH2 [Compound 23] | 2330
B3 | > 2000
Ac-DDEFNQKINEVNEKIEEILKKIEESDRKLEESDKKA-NH2 [Compound 2] | > 8000
B4 | 6820
B5 | 296
B6 | 2220
B7 | 5530
